This note sets out measurements from patent US20210403527A1.

The target of assay [1] is composite TCR 001 (human variable domains, mouse constant domains) (mouse) (UniProt P01849). The assay can be described thus: Flow cytometry, dextramer against CD8a, sorted T cells expressing composite TCR 001 after 12 days of post-sort expansion, left panel. (In flow cytometry, cells or beads pass a laser one at a time.)
Assay [2] deals with NY-ESO-1 peptide on HLA-A*02:01 (human). Kind of assay: AP-1 luciferase reporter; Jurkat J.RT3.T3.5 with CD8A/B; HLA-A2+ 293T cells pulsed with 100 uM NY-ESO-1 peptide; full-length, on cells. (Reporter assays use an easily measured gene product as a stand-in for the process of interest.)
The target in assay [3] is HLA-A2/NY-ESO-1 (157-165) complex on cells (human). Kind of assay: cell-based or functional assay.

composite TCR 001 (human variable domains, mouse constant domains) (mouse), sequence (P01849 other isoform, or with tags, fused parts or gaps, chain 1 of 2): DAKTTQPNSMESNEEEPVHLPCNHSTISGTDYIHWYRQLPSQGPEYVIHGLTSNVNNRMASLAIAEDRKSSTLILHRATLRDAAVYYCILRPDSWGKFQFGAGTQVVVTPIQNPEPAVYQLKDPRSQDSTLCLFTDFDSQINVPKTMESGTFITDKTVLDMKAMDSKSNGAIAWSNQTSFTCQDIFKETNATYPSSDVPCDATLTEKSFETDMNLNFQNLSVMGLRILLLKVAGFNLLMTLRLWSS
composite TCR 001 (human variable domains, mouse constant domains) (mouse), sequence (P01852 other isoform, or with tags, fused parts or gaps, chain 2 of 2, further chain): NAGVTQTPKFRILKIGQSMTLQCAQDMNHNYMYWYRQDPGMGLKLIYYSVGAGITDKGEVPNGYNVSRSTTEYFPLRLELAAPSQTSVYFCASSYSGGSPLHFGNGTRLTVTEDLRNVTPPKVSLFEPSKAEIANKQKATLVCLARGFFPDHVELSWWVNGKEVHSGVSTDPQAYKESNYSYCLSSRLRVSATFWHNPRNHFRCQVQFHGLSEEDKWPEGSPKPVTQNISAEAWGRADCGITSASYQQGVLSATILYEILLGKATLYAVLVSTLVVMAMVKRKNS

Control Dextramer (peptide-MHC): in assay [1], the Dex+ CD8+ (share of cells in the gate) came to 0.52.
As for 1G4, the signal to noise ratio (RLU with peptide-pulsed APCs / RLU with non-pulsed APCs) in assay [2] came out at 6.3.
Regarding “patient-derived NY-ESO-1 specific comparator TCR 1G4”, the Signal to Noise (S/N) ratio (RLU to peptide pulsed APCs divided by RLU to non-pulsed APCs), AP-1 luciferase reporter T cells in assay [3] came out at 6.3.
